According to publication PMC9482650, “Quantitative fragmentomics allow affinity mapping of interactomes” (Nature Communications, 2022):

Key:
Experiment in all cases: holdup assay
Design in all cases: key: below the threshold = too weak to quantify, mostly under pKd 3.1 to 4
GRID2IP_2, A4D2P6 = target: GRID2IP_2, A4D2P6
GRID2IP_1, A4D2P6 = target: GRID2IP_1, A4D2P6
MAST1, Q9Y2H9 = target: MAST1, Q9Y2H9
GRIP2_7, Q9C0E4 = target: GRIP2_7, Q9C0E4
SYNJ2BP, P57105 = target: T1, SYNJ2BP, P57105
T1 sequence (P57105 8-110, limits assumed, looked up): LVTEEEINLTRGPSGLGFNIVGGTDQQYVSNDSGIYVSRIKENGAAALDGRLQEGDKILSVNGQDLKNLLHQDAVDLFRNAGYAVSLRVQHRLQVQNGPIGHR

NHERF2_2, Q15599 = target: NHERF2_2, Q15599
HTRA2, O43464 = target: HTRA2, O43464
HTRA3, P83110 = target: T2, HTRA3, P83110
T2 sequence (P83110 354-453, limits assumed, looked up): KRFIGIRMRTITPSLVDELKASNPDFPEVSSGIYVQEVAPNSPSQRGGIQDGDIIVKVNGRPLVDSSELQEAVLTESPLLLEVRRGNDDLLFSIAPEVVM

FRMPD2_2, Q68DX3 = target: FRMPD2_2, Q68DX3
MPDZ_12, O75970 = target: T3, MPDZ_12, O75970
T3 sequence (O75970 1857-1958, limits assumed, looked up): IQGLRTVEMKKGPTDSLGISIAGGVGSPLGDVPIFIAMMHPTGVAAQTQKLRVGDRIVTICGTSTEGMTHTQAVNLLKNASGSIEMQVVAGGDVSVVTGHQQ

GORASP2, Q9H8Y8 = target: GORASP2, Q9H8Y8
GRIP2_5, Q9C0E4 = target: GRIP2_5, Q9C0E4
SCRIB_1, Q14160 = target: SCRIB_1, Q14160
LDB3, O75112 = target: LDB3, O75112
DLG1_3, Q12959 = target: DLG1_3, Q12959
SNTA1, Q13424 = target: T4, SNTA1, Q13424
T4 sequence (Q13424 82-180, limits assumed, looked up): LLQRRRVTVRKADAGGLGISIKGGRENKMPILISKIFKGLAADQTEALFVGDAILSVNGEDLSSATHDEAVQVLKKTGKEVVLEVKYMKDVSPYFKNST

CARD11, Q9BXL7 = target: T5, CARD11, Q9BXL7
T5 sequence (Q9BXL7 662-765, limits assumed, looked up): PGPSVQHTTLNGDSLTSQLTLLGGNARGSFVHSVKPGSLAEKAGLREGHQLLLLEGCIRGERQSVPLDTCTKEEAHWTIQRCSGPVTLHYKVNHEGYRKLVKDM

SNTG2, Q9NY99 = target: T6, SNTG2, Q9NY99
T6 sequence (Q9NY99 68-166, limits assumed, looked up): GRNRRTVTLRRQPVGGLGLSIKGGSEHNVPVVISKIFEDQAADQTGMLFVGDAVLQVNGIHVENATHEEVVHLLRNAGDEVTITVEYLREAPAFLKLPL

MAGI2_2, Q86UL8 = target: MAGI2_2, Q86UL8
APBA3_1, O96018 = target: T7, APBA3_1, O96018
T7 sequence (O96018 389-490, limits assumed, looked up): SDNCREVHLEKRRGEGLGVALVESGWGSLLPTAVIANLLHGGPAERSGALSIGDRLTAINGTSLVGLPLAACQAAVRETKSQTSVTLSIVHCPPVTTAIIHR

DLG4_3, P78352 = target: DLG4_3, P78352
GORASP1, Q9BQQ3 = target: GORASP1, Q9BQQ3
DLG2_2, Q15700 = target: DLG2_2, Q15700
AHNAK1, Q09666 = target: AHNAK1, Q09666
LIN7C, Q9NUP9 = target: T8, LIN7C, Q9NUP9
T8 sequence (Q9NUP9 88-185, limits assumed, looked up): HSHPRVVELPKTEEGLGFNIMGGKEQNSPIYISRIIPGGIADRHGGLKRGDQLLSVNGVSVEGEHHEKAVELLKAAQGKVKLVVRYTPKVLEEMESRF

GRIP1_7, Q9Y3R0 = target: T9, GRIP1_7, Q9Y3R0
T9 sequence (Q9Y3R0 999-1096, limits assumed, looked up): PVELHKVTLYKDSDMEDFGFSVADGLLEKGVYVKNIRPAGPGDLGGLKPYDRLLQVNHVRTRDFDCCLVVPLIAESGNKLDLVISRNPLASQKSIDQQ

MAGI2_5, Q86UL8 = target: MAGI2_5, Q86UL8
TIAM2, Q8IVF5 = target: T10, TIAM2, Q8IVF5
T10 sequence (Q8IVF5 885-986, limits assumed, looked up): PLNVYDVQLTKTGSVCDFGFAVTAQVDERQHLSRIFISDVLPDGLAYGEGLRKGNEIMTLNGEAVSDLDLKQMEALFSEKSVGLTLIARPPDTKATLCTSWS

[1] = plain residues with an end cap or a label only (N-terminal biotin on a linker: ttds)
[2] = plain residues with an end cap or a label only (N-terminal biotin on a linker: ado-ado)
[3] = plain residues with an end cap or a label only (N-terminal biotin on a linker: ahx)

DLG1_3, Q12959, sequence (Q12959 457-571): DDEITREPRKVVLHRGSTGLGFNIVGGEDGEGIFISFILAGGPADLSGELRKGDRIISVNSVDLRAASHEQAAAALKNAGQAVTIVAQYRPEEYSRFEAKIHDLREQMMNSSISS
SCRIB_1, Q14160, sequence (Q14160 718-814): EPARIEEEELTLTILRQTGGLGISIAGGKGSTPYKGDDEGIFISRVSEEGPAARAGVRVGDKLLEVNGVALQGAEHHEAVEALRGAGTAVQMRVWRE
GRID2IP_2, A4D2P6, sequence (A4D2P6 272-370): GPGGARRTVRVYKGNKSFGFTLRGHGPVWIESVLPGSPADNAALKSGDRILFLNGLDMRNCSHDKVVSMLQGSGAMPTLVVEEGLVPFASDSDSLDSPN
NHERF2_2, Q15599, sequence (Q15599 142-238): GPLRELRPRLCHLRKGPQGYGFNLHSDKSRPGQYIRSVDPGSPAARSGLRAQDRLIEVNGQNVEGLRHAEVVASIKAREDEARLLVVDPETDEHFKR
HTRA2, O43464, sequence (O43464 355-458): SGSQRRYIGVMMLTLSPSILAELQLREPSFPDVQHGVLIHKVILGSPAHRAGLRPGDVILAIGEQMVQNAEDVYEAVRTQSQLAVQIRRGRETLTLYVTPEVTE
GRID2IP_1, A4D2P6, sequence (A4D2P6 1-87): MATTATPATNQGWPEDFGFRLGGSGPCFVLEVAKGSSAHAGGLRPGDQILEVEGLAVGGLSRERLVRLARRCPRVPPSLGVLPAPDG
GRIP2_5, Q9C0E4, sequence (Q9C0E4 544-642): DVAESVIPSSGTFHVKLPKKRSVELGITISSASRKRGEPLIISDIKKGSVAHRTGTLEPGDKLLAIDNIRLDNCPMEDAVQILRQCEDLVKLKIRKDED
LDB3, O75112, sequence (O75112 1-94): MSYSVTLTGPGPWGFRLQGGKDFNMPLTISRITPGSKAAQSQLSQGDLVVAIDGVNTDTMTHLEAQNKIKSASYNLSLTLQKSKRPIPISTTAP
AHNAK1, Q09666, sequence (Q09666 4-100): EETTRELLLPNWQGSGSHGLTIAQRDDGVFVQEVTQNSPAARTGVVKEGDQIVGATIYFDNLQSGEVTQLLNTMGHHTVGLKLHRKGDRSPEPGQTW
FRMPD2_2, Q68DX3, sequence (Q68DX3 944-1038): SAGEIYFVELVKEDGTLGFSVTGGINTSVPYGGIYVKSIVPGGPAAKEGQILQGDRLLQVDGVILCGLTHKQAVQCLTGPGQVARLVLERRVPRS
DLG4_3, P78352, sequence (P78352 306-403): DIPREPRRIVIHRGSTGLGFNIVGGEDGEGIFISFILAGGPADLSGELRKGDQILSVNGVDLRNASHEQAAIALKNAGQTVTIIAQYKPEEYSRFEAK
MAGI2_2, Q86UL8, sequence (Q86UL8 410-522): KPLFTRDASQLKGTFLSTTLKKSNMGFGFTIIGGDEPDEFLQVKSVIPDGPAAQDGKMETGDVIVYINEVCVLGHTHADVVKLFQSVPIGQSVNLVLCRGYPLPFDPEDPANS
MAGI2_5, Q86UL8, sequence (Q86UL8 915-1017): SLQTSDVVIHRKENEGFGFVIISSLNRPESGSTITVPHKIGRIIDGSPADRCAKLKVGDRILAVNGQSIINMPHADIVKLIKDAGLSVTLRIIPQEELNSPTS
GRIP2_7, Q9C0E4, sequence (Q9C0E4 934-1023): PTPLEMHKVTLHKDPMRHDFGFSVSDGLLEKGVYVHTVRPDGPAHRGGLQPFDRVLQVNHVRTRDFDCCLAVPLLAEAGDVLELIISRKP
DLG2_2, Q15700, sequence (Q15700 189-283): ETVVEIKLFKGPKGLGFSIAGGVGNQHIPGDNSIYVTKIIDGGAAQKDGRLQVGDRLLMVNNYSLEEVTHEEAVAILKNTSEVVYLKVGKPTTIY
MAST1, Q9Y2H9, sequence (Q9Y2H9 962-1065): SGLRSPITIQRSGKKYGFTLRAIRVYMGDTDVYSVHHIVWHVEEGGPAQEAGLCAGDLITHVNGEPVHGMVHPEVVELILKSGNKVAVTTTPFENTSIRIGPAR
GORASP1, Q9BQQ3, sequence (Q9BQQ3 1-208): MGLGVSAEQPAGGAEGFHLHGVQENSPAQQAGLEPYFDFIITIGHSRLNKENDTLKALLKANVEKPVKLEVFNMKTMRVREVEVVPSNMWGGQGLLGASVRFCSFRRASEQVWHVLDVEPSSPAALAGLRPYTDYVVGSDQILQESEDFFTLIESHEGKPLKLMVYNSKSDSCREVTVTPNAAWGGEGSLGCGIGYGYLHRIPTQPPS

B1: HPV51-E6, P26554 (peptide)
chain: RTRQRNETQV
With B1 the pKd (GRID2IP_2, A4D2P6; [1]) was “below the threshold”, the pKd (GRID2IP_1, A4D2P6; [1]) was “below the threshold” and the pKd (MAST1, Q9Y2H9; [1]) was 4.23. For the same binder, the pKd (GRIP2_7, Q9C0E4; [1]) was 3.48, the pKd (SYNJ2BP, P57105; [1]) was 5.02 and the pKd (NHERF2_2, Q15599; [1]) was “below the threshold”. The pKd (HTRA2, O43464; [1]) was “below the threshold”, the pKd (HTRA3, P83110; [1]) was “below the threshold” and the pKd (FRMPD2_2, Q68DX3; [1]) was 3.41. For the same binder, the pKd (MPDZ_12, O75970; [1]) was “below the threshold”, the pKd (GORASP2, Q9H8Y8; [1]) was 4.65 and the pKd (GRIP2_5, Q9C0E4; [1]) was “below the threshold”. For the same binder, the pKd (SCRIB_1, Q14160; [1]) was 4.56, the pKd (LDB3, O75112; [1]) was “below the threshold” and the pKd (DLG1_3, Q12959; [1]) was 4.54. The pKd (SNTA1, Q13424; [1]) was 4.23, the pKd (CARD11, Q9BXL7; [1]) was “below the threshold” and the pKd (SNTG2, Q9NY99; [1]) was 4.22. For the same binder, the pKd (MAGI2_2, Q86UL8; [1]) was 6.66, the pKd (APBA3_1, O96018; [1]) was “below the threshold” and the pKd (DLG4_3, P78352; [1]) was 4.75. The pKd (GORASP1, Q9BQQ3; [1]) was “below the threshold”, the pKd (DLG2_2, Q15700; [1]) was 4.97 and the pKd (AHNAK1, Q09666; [1]) was “below the threshold”. For the same binder, the pKd (LIN7C, Q9NUP9; [1]) was 3.84, the pKd (GRIP1_7, Q9Y3R0; [1]) was “below the threshold” and the pKd (MAGI2_5, Q86UL8; [1]) was 4.12. For the same binder, the pKd (TIAM2, Q8IVF5; [1]) was “below the threshold”.

B2: CES2, O00748 (peptide)
chain: EEPEERHTEL
With B2 the pKd (GRID2IP_2, A4D2P6; [2]) was 4.46, the pKd (GRID2IP_1, A4D2P6; [2]) was “below the threshold” and the pKd (MAST1, Q9Y2H9; [2]) was 3.53. For the same binder, the pKd (GRIP2_7, Q9C0E4; [2]) was “below the threshold”, the pKd (SYNJ2BP, P57105; [2]) was 4.18 and the pKd (NHERF2_2, Q15599; [2]) was 4.63. The pKd (HTRA2, O43464; [2]) was “below the threshold”, the pKd (HTRA3, P83110; [2]) was “below the threshold” and the pKd (FRMPD2_2, Q68DX3; [2]) was “below the threshold”. The pKd (MPDZ_12, O75970; [2]) was “below the threshold”, the pKd (GORASP2, Q9H8Y8; [2]) was “below the threshold” and the pKd (GRIP2_5, Q9C0E4; [2]) was “below the threshold”. For the same binder, the pKd (SCRIB_1, Q14160; [2]) was 4.21, the pKd (LDB3, O75112; [2]) was “below the threshold” and the pKd (DLG1_3, Q12959; [2]) was 3.52. For the same binder, the pKd (SNTA1, Q13424; [2]) was 4.68, the pKd (CARD11, Q9BXL7; [2]) was “below the threshold” and the pKd (SNTG2, Q9NY99; [2]) was “below the threshold”. The pKd (MAGI2_2, Q86UL8; [2]) was “below the threshold”, the pKd (APBA3_1, O96018; [2]) was “below the threshold” and the pKd (DLG4_3, P78352; [2]) was “below the threshold”. For the same binder, the pKd (GORASP1, Q9BQQ3; [2]) was “below the threshold”, the pKd (DLG2_2, Q15700; [2]) was 3.86 and the pKd (AHNAK1, Q09666; [2]) was “below the threshold”. The pKd (LIN7C, Q9NUP9; [2]) was “below the threshold”, the pKd (GRIP1_7, Q9Y3R0; [2]) was “below the threshold” and the pKd (MAGI2_5, Q86UL8; [2]) was 4.4. The pKd (TIAM2, Q8IVF5; [2]) was 4.07.

B3: TMEM215, Q68D42 (peptide)
chain: QGRWDHETIV
B3 was tested, and the pKd (GRID2IP_2, A4D2P6; [3]) was “below the threshold”, the pKd (GRID2IP_1, A4D2P6; [3]) was “below the threshold” and the pKd (MAST1, Q9Y2H9; [3]) was 4.3. The pKd (GRIP2_7, Q9C0E4; [3]) was “below the threshold”, the pKd (SYNJ2BP, P57105; [3]) was 4.14 and the pKd (NHERF2_2, Q15599; [3]) was “below the threshold”. For the same binder, the pKd (HTRA2, O43464; [3]) was 3.68, the pKd (HTRA3, P83110; [3]) was “below the threshold” and the pKd (FRMPD2_2, Q68DX3; [3]) was 4.4. For the same binder, the pKd (MPDZ_12, O75970; [3]) was “below the threshold”, the pKd (GORASP2, Q9H8Y8; [3]) was 4.3 and the pKd (GRIP2_5, Q9C0E4; [3]) was “below the threshold”. For the same binder, the pKd (SCRIB_1, Q14160; [3]) was 4.11, the pKd (LDB3, O75112; [3]) was 3.47 and the pKd (DLG1_3, Q12959; [3]) was 3.68. The pKd (SNTA1, Q13424; [3]) was 5.28, the pKd (CARD11, Q9BXL7; [3]) was “below the threshold” and the pKd (SNTG2, Q9NY99; [3]) was 4.58. For the same binder, the pKd (MAGI2_2, Q86UL8; [3]) was 4.08, the pKd (APBA3_1, O96018; [3]) was “below the threshold” and the pKd (DLG4_3, P78352; [3]) was 3.64. It also gave a pKd (GORASP1, Q9BQQ3; [3]) of 4.15, a pKd (DLG2_2, Q15700; [3]) of 4.07 and a pKd (AHNAK1, Q09666; [3]) of 3.64. The pKd (LIN7C, Q9NUP9; [3]) was 3.88, the pKd (GRIP1_7, Q9Y3R0; [3]) was 3.51 and the pKd (MAGI2_5, Q86UL8; [3]) was 4.44. For the same binder, the pKd (TIAM2, Q8IVF5; [3]) was “below the threshold”.
